Molecular target: T1, MHC class I allele A*0101 (bound via biotin to streptavidin-coated plate)
T1 construct: iTopia MHC class I monomer on the plate; placeholder peptide and b2M removed, then reconstituted with test peptide and fresh b2M; also called A1; HLA A1
Test: iTopia peptide binding assay
Experimental: (§1) The 9 mers were tested for Peptide Binding, Off Rate and Affinity using iTopia Epitope Discovery System in accordance with the manufacturer's instructions. Briefly, 96 well microtitre plates coated with MHC molecules representing different MHC alleles are used to identify candidate peptides. […] Determinations are performed in duplicate using an ELISA plate reader and included allele specific positive controls.
(§2) i) Peptide Binding—This assay measures the ability of individual peptides to bind to the MHC molecules under standardized optimal binding conditions. The assay is performed for all the test peptides across the selected MHC alleles. The test peptides identified as “binders” are characterized further in terms of affinity and dissociation experiments.

Binder | % of positive control peptide binding
RDVLAQLPS [5T4 9 mer peptide 114 RDVLAQLPS] | 1%
SPTSSASSF (also called Peptide No 17) [5T4 9 mer peptide 17 SPTSSASSF] | 2%
SSSPTSSAS (also called Peptide No 16) [5T4 9 mer peptide 16 SSSPTSSAS] | 4%
SSAPFLASA (also called Peptide No 22) [5T4 9 mer peptide 22 SSAPFLASA] | 6%
LDLSNNSLV (also called Peptide No 120) [5T4 9 mer peptide 120 LDLSNNSLV] | 7%
VSSSSPTSS (also called Peptide No 15) [5T4 9 mer peptide 15 VSSSSPTSS] | 3%

Molecular target: T2, MHC class I allele A*0201 (bound via biotin to streptavidin-coated plate)
T2 construct: iTopia MHC class I monomer on the plate; placeholder peptide and b2M removed, then reconstituted with test peptide and fresh b2M; also called A2; HLA A2
Test: iTopia peptide binding assay
Experimental: as §1, §2

Binder | % of positive control peptide binding
RDVLAQLPS [5T4 9 mer peptide 114 RDVLAQLPS] | 15%
SPTSSASSF (also called Peptide No 17) [5T4 9 mer peptide 17 SPTSSASSF] | 4%
SSSPTSSAS (also called Peptide No 16) [5T4 9 mer peptide 16 SSSPTSSAS] | 7%
SSAPFLASA (also called Peptide No 22) [5T4 9 mer peptide 22 SSAPFLASA] | 85%
LDLSNNSLV (also called Peptide No 120) [5T4 9 mer peptide 120 LDLSNNSLV] | 42%
VSSSSPTSS (also called Peptide No 15) [5T4 9 mer peptide 15 VSSSSPTSS] | 9%

Molecular target: T3, MHC class I allele A*0301 (bound via biotin to streptavidin-coated plate)
T3 construct: iTopia MHC class I monomer on the plate; placeholder peptide and b2M removed, then reconstituted with test peptide and fresh b2M; also called A3; HLA A3
Test: iTopia peptide binding assay
Experimental: as §1, §2

Binder | % of positive control peptide binding
RDVLAQLPS [5T4 9 mer peptide 114 RDVLAQLPS] | 3%
SPTSSASSF (also called Peptide No 17) [5T4 9 mer peptide 17 SPTSSASSF] | 0%
SSSPTSSAS (also called Peptide No 16) [5T4 9 mer peptide 16 SSSPTSSAS] | 2%
SSAPFLASA (also called Peptide No 22) [5T4 9 mer peptide 22 SSAPFLASA] | 1%
LDLSNNSLV (also called Peptide No 120) [5T4 9 mer peptide 120 LDLSNNSLV] | 3%
VSSSSPTSS (also called Peptide No 15) [5T4 9 mer peptide 15 VSSSSPTSS] | 2%

Molecular target: T4, MHC class I allele B*0702 (bound via biotin to streptavidin-coated plate)
T4 construct: iTopia MHC class I monomer on the plate; placeholder peptide and b2M removed, then reconstituted with test peptide and fresh b2M; also called B7; HLA B7
Test: iTopia peptide binding assay
Experimental: as §1, §2

Binder | % of positive control peptide binding
RDVLAQLPS [5T4 9 mer peptide 114 RDVLAQLPS] | 4%
SPTSSASSF (also called Peptide No 17) [5T4 9 mer peptide 17 SPTSSASSF] | 62%
SSSPTSSAS (also called Peptide No 16) [5T4 9 mer peptide 16 SSSPTSSAS] | 8%
SSAPFLASA (also called Peptide No 22) [5T4 9 mer peptide 22 SSAPFLASA] | 7%
LDLSNNSLV (also called Peptide No 120) [5T4 9 mer peptide 120 LDLSNNSLV] | 3%
VSSSSPTSS (also called Peptide No 15) [5T4 9 mer peptide 15 VSSSSPTSS] | 2%

Molecular target: T5, MHC class I molecule A*0101 (biotin (bound to streptavidin-coated plate))
T5 construct: iTopia monomer stripped of placeholder peptide and b2M, then reconstituted with test peptide and fresh b2M; also called A1; HLA-A1
Test: iTopia peptide binding assay
Experimental: as §1, §2

Binder | binding, % of positive control peptide
LTYVSFRNL [5T4 9-mer peptide 125 (LTYVSFRNL)] | 28 % of positive control
LELNSADLD [5T4 9-mer peptide 168 (LELNSADLD)] | 0 % of positive control
LHLEDNALK [5T4 9-mer peptide 132 (LHLEDNALK)] | 4 % of positive control
NNSLVSLTY [5T4 9-mer peptide 122 (NNSLVSLTY)] | 8 % of positive control
ESLHLEDNA [5T4 9-mer peptide 131 (ESLHLEDNA)] | 2 % of positive control
DCHMADMVT [5T4 9-mer peptide 150 (DCHMADMVT)] | 0 % of positive control
SFRNLTHLE [5T4 9-mer peptide 127 (SFRNLTHLE)] | 1 % of positive control
VQGKDRLTC [5T4 9-mer peptide 158 (VQGKDRLTC)] | 0 % of positive control
LDNNPWVCD [5T4 9-mer peptide 146 (LDNNPWVCD)] | 0 % of positive control
CAYPEKMRN [5T4 9-mer peptide 162 (CAYPEKMRN)] | 0 % of positive control

Molecular target: T6, MHC class I molecule A*0201 (biotin (bound to streptavidin-coated plate))
T6 construct: iTopia monomer stripped of placeholder peptide and b2M, then reconstituted with test peptide and fresh b2M; also called A2; HLA-A2
Test: iTopia peptide binding assay
Experimental: as §1, §2

Binder | binding, % of positive control peptide
LTYVSFRNL [5T4 9-mer peptide 125 (LTYVSFRNL)] | 25 % of positive control
LELNSADLD [5T4 9-mer peptide 168 (LELNSADLD)] | 3 % of positive control
LHLEDNALK [5T4 9-mer peptide 132 (LHLEDNALK)] | 4 % of positive control
NNSLVSLTY [5T4 9-mer peptide 122 (NNSLVSLTY)] | 12 % of positive control
ESLHLEDNA [5T4 9-mer peptide 131 (ESLHLEDNA)] | 8 % of positive control
DCHMADMVT [5T4 9-mer peptide 150 (DCHMADMVT)] | 7 % of positive control
SFRNLTHLE [5T4 9-mer peptide 127 (SFRNLTHLE)] | 1 % of positive control
VQGKDRLTC [5T4 9-mer peptide 158 (VQGKDRLTC)] | 4 % of positive control
LDNNPWVCD [5T4 9-mer peptide 146 (LDNNPWVCD)] | 0 % of positive control
CAYPEKMRN [5T4 9-mer peptide 162 (CAYPEKMRN)] | 11 % of positive control

Molecular target: T7, MHC class I molecule A*0301 (biotin (bound to streptavidin-coated plate))
T7 construct: iTopia monomer stripped of placeholder peptide and b2M, then reconstituted with test peptide and fresh b2M; also called A3; HLA-A3
Test: iTopia peptide binding assay
Experimental: as §1, §2

Binder | binding, % of positive control peptide
LTYVSFRNL [5T4 9-mer peptide 125 (LTYVSFRNL)] | 20 % of positive control
LELNSADLD [5T4 9-mer peptide 168 (LELNSADLD)] | 5 % of positive control
LHLEDNALK [5T4 9-mer peptide 132 (LHLEDNALK)] | 5 % of positive control
NNSLVSLTY [5T4 9-mer peptide 122 (NNSLVSLTY)] | 4 % of positive control
ESLHLEDNA [5T4 9-mer peptide 131 (ESLHLEDNA)] | 0 % of positive control
DCHMADMVT [5T4 9-mer peptide 150 (DCHMADMVT)] | 3 % of positive control
SFRNLTHLE [5T4 9-mer peptide 127 (SFRNLTHLE)] | 1 % of positive control
VQGKDRLTC [5T4 9-mer peptide 158 (VQGKDRLTC)] | 6 % of positive control
LDNNPWVCD [5T4 9-mer peptide 146 (LDNNPWVCD)] | 2 % of positive control
CAYPEKMRN [5T4 9-mer peptide 162 (CAYPEKMRN)] | 4 % of positive control

Molecular target: T8, MHC class I molecule B*0702 (biotin (bound to streptavidin-coated plate))
T8 construct: iTopia monomer stripped of placeholder peptide and b2M, then reconstituted with test peptide and fresh b2M; also called B7; HLA-B7
Test: iTopia peptide binding assay
Experimental: as §1, §2

Binder | binding, % of positive control peptide
LTYVSFRNL [5T4 9-mer peptide 125 (LTYVSFRNL)] | 58 % of positive control
LELNSADLD [5T4 9-mer peptide 168 (LELNSADLD)] | 3 % of positive control
LHLEDNALK [5T4 9-mer peptide 132 (LHLEDNALK)] | 0 % of positive control
NNSLVSLTY [5T4 9-mer peptide 122 (NNSLVSLTY)] | 0 % of positive control
ESLHLEDNA [5T4 9-mer peptide 131 (ESLHLEDNA)] | 0 % of positive control
DCHMADMVT [5T4 9-mer peptide 150 (DCHMADMVT)] | 5 % of positive control
SFRNLTHLE [5T4 9-mer peptide 127 (SFRNLTHLE)] | 0 % of positive control
VQGKDRLTC [5T4 9-mer peptide 158 (VQGKDRLTC)] | 6 % of positive control
LDNNPWVCD [5T4 9-mer peptide 146 (LDNNPWVCD)] | 3 % of positive control
CAYPEKMRN [5T4 9-mer peptide 162 (CAYPEKMRN)] | 3 % of positive control

Reference: patent US20090280138A1 (OXFORD BIOMEDICA UK, published 2009)
